Consider five molecules from paper PMC3046128, “Systematic Two-Hybrid and Comparative Proteomic Analyses Reveal Novel Yeast Pre-mRNA Splicing Factors Connected to Prp19” (PLoS ONE, 2011).

One test deals with T1, His6-ScPrp19(144–503) (S. cerevisiae, UniProt P32523 144-503).
T1 construct: Prp19, S. cerevisiae, amino acids 144–503; also called His6-Prp19(144–503); ScPrp19 WD40 domain; source: E. coli BL21 (pET15b), purified (Ni-NTA agarose)
T1 sequence (looked up): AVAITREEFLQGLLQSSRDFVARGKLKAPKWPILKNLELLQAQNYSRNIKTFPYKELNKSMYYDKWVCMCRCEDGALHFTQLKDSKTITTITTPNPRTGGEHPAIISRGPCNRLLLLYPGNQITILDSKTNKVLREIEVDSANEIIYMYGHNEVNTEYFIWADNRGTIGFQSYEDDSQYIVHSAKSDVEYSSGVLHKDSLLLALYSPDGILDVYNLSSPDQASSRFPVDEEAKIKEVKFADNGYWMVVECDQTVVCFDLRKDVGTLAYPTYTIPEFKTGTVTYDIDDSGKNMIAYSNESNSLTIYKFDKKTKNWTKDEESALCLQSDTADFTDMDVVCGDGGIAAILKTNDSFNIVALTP
The experiment in a line: pull-down; purified soluble MBP fusions incubated one hour at 4°C with Ni-NTA beads coated with His6-ScPrp19(144–503); washed; SDS-PAGE and Coomassie staining. The following applies: both partners purified.

In another test the target is T2, S. pombe Prp19-Myc13 (S. pombe, UniProt O14011 1-488).
T2 construct: Prp19 (Cwf8), S. pombe, open reading frame tagged at the 3' end of the endogenous locus; also called SpPrp19; Cwf8; source: S. pombe, tagged at the endogenous locus, in lysate; not shown: Myc13, C-terminal, kept
T2 sequence (looked up): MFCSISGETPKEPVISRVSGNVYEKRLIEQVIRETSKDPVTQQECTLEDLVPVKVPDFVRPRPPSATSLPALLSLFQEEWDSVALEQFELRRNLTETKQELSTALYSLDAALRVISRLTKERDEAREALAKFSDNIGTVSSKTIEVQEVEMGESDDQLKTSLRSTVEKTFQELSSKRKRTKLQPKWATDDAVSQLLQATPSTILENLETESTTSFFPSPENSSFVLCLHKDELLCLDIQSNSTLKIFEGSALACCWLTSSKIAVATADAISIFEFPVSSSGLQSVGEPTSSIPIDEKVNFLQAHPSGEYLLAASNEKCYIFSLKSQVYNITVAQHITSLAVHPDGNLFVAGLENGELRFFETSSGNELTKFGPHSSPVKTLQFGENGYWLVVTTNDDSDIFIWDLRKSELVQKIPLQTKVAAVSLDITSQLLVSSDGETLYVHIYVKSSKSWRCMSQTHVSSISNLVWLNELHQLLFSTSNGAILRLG
The test is described as follows: co-IP; anti-HA immunoprecipitate from S. pombe cwf7-HA3 prp19-Myc13 prp17-Myc13 cells; anti-Myc immunoblot quantified on an Odyssey instrument. The settings on record: partners not purified. On the technique in general: A western blot detects proteins with antibodies after separation by electrophoresis.

For test [1], the target named is T3, full length S. cerevisiae Prp19 (S. cerevisiae), P32523.
T3 chain: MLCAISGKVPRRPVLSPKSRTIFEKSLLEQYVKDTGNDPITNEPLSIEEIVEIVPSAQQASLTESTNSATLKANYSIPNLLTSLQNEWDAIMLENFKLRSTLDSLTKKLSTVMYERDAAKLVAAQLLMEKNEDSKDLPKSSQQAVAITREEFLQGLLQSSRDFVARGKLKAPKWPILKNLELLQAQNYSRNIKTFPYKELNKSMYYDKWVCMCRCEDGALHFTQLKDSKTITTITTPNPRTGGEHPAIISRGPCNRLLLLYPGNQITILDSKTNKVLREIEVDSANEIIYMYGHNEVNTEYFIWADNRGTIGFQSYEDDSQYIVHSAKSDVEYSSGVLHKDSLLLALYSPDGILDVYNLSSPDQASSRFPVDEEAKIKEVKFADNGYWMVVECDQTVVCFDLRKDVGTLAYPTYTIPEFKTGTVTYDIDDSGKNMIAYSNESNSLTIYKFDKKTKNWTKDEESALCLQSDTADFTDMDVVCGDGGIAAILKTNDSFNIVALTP
The experiment in a line: AUC; sedimentation velocity, 30,000 rpm, 22°C, 280 nm; Sedfit c(s) analysis; ScPrp19 constant with His6-ScUrn1 at 1∶1 or 1∶2.5 molar ratio. The settings on record: remark: other sources report otherwise.

In test [2] the target is T4, full length S. cerevisiae Prp19 (S. cerevisiae, UniProt P32523 1-503).
T4 construct: Prp19, S. cerevisiae, full length (mass 58.6 kDa); no tag is printed for Prp19 in this experiment; also called ScPrp19; source: E. coli BL21 (pETDuet-1), co-expressed with His6-ScUrn1, purified (Ni-NTA agarose, heparin agarose, gel filtration)
T4 sequence (looked up): T3 chain
The description is as above. The following applies: both partners purified.

B1: MBP-ScPrp17(1–140) (domain or fragment, S. cerevisiae, UniProt P40968 1-140, looked up)
chain: MGLVDGYDTSSDSDLNFDEGKSVHEKKNGNLHEDTSYEPSSNNIHKRKSHFTKSELKRRRKTRKGDGPWGSWSSSDDETSQASETQKEDQDIFVHALAEDNLDSEQIEVEEVSHFYGKSEKDYQGRGYLYPPNDVDVDLR
notes: Prp17/Cdc40, S. cerevisiae, residues 1–140; source: E. coli BL21 (pMAL-c2X), purified (amylose beads)
In the case of B1, in the test with His6-ScPrp19(144–503), the binding result is on record as “binds”.

B2: S. pombe Prp17-Myc13 (natural protein, UniProt O43071 1-558, looked up)
chain: MLVANYSSDSEEQENSQSPNIQPLLHTENLAPAVVDNVKDDLIVSKGGNSRELARNVPVNEMVQPALGPANPFVTKEQDSIKNSITGYAEREYVPNFVFNQEYYANTHAIYGKRNFDDNEATTSTDLKRKSQKIKERREDPGDPSILEGDGAYKGPWAGYGSEQSSSPLEYSEYEEVESLDVKSEKDTESNNLGQNELLKEQLATPEVETHRSKEETILHKDRLFDYQNRSYMHVPNDVGINLSEEPGEQTCYIPKKHIFTWKGHTKGISCLRFFPISGHLLLSGSMDNQIKIWEVYHDRSLLRTFQGHARPIRDLSFSQDGRSFLSTSFDKTIKLWDTELGKCLNCFNSDRLTNCVKFQVDPDKPNEFLAGTADKRILQFDIRSPDIVQAYDHHLGGINSITFLENGKRFVTTSDDSSMRFWEYGTPVPIKFVADIAMHSMPRVALRPNGKSIACQSLDNCIYVYSAYEKYRQNKKKVFKGYSCSGYSLEVGFSPDGRFVFSGDSSGNACFWDWKTCKLMAKLPAHSGPVQSMAFHPQETSKVATSSIVDGSIKYWD
notes: Prp17, S. pombe, open reading frame tagged at the 3' end of the endogenous locus; also called SpPrp17; source: S. pombe, tagged at the endogenous locus, in lysate; not shown: Myc13, C-terminal, kept
On to B2, for which the stoichiometry N (in general, the number of molecules, sites or subunits per partner or assembly) with S. pombe Prp19-Myc13 was 1.05 ratio of Myc-tagged proteins.

B3: full length S. cerevisiae Prp19, P32523 1-503 (natural protein)
chain: T3 chain
In the case of B3, the stoichiometry N in test [1] amounted to 4.

B4: His6-ScUrn1 (natural protein, S. cerevisiae, UniProt Q06525 1-465, looked up)
chain: MRGEWQEFKTPAGKKYYYNKNTKQSRWEKPNLKKGSNLESNAKESQTERKPTFSLELVNGWHLIIYNDGTKLYFNDDSKEFKNDISQEDDSRCRSLIESLDKEKLVLLIGVARGYTMREEDIDKILESCNEEIHLFKRNQDEVERKDEISEEAGDVKSPLQESHTGLVSGYGSSSGEEDEEEDEEEDEENEEQIVNQDISIIDDLNRIDTDDIDERNIFFELFDRYKLDKFSTWSLQSKKIENDPDFYKIRDDTVRESLFEEWCGERSGNATAEESDSEDNSEDDSEVLEPTKYHYLAQIVANAGTIAPDTIPQDIRKQQKALYKAYKIKEYIPSKRDQDKFVSQLLFYYKTFDLEQRKEIFCDCLRDHERDFTGAVESLRQDKELIDRWQTLLKAPADSSSIEDILLSIEHRCCVSPIVVTEPRYYVVGILEKTVVWVRWLAAEVGPSSRFTPVGAGNEPINPE
notes: Urn1, S. cerevisiae (His6-ScUrn1 mass 55.1 kDa); the printed mass fits the whole protein; also called His6-Urn1; source: E. coli BL21 (pETDuet-1), co-expressed with ScPrp19, purified (Ni-NTA agarose, heparin agarose, gel filtration)
For the molecule B4, the “stoichiometry N” value in test [2] is 1 Urn1 per Prp19 tetramer.

B5: MBP-ScUrn1(165–274) (domain or fragment, S. cerevisiae, UniProt Q06525 165-274, looked up)
chain: TGLVSGYGSSSGEEDEEEDEEEDEENEEQIVNQDISIIDDLNRIDTDDIDERNIFFELFDRYKLDKFSTWSLQSKKIENDPDFYKIRDDTVRESLFEEWCGERSGNATAE
notes: source: E. coli BL21 (pMAL-c2X), purified (amylose beads)
Regarding B5, the binding result with His6-ScPrp19(144–503) was “binds”.
